From the DeepSol protein solubility set

Assay: soluble on expression in E. coli; label from the status in PepcDB or PDB records

Row | Sequence | soluble on expression in E. coli
1 | MGSDKIHHHHHHMRKIKLIIFPGYYIPHIGGLETHVDEFTKHLSEDENYDIYIFAPNIPKYKEFEIRHNNVKVYRYPAFEIIPNYPVPNIFNIKFWRMFFNLYKIDFDIVMTRTRFFSNTLLGFIFAKLRFKKKKLIHVEHGSAFVKLESEFKNKLSYFYDKTIGKLIFKKADYVVAISKAVKNFILENFVNDKDIPIIYRGLEIEKIESIGEDKKIKEKFKNKIKLCFVGRLYKWKGVENIIKAYVDLPKDLKEKIILIVVGYGEDLERLKKLAGNYLNNGIYFTGKVDFEKAIAIVKASDIYIHSSYKGGGLSSSLLQAMCCGKAIVASPYEGADEVVIDGYNGILLKDNSPEEIKRGIIKLIENNNLRKIYGENAKNFIKENFNWKKSVKEYKKIFERLVN | not soluble
2 | MGSDKIHHHHHHMDIELREKIAGEITLSDSPAETIRKWREEFKVSQLELSNFLNQSPSVISDYETGRRKFPSIASVRKIVDALITIDERRGGYVIKKYKSGVPSDALIDIKDYDRDVPLEKAIRAMNGKNVSHVSVERNIRGYTIVDGVKAILAFSYYEYSKLYGWSSERAIFFTDVKFGRSPMIAIRVHPLKPAAVVYIQPDNVDDLAIKLADIENIPLLITEMSPEAVSHVMSQLR | not soluble
3 | MSLDHRLLSINTATVRRQGDLATIIEACARAQIRAISPWRDQVAHIGLPRAVEAVKATGLALSGYCRGGMFPADPARLPEVRDDNRRAVDEAEALGASCLVLVVGGLPQYARPGSAPSKDIGAARAMVEDGIGTLLEYARSAHMPLAIEPLHPMYAADRACVNTMGQALDICDRLDPERSGMLGVALDVFHVWWDPDLSAQIVRAGRDRLLAYHVCDWLVPMADMLNDRGMMGDGVIDLKAIRAQVEAQGYQGFAEVEIFSEHWWAKPMEEVLGTCISRHRSVVEGHHHHHH | not soluble
4 | MAHHHHHHMGTLEAQTQGPGSMTGPLAAARSVAATKSMTAPTVDERPDIKKGLAGVVVDTTAISKVVPQTNSLTYRGYPVQDLAARCSFEQVAFLLWRGELPTDAELALFSQRERASRRVDRSMLSLLAKLPDNCHPMDVVRTAISYLGAEDPDEDDAAANRAKAMRMMAVLPTIVAIDMRRRRGLPPIAPHSGLGYAQNFLHMCFGEVPETAVVSAFEQSMILYAEHGFNASTFAARVVTSTQSDIYSAVTGAIGALKGRLHGGANEAVMHDMIEIGDPANAREWLRAKLARKEKIMGFGHRVYRHGDSRVPTMKRALERVGTVRDGQRWLDIYQVLAAEMASATGILPNLDFPTGPAYYLMGFDIASFTPIFVMSRITGWTAHIMEQATANALIRPLSAYCGHEQRVLPGTF | soluble
5 | MGTGSGGPIGVSPFHSRGALKGFVISGRWPDSTKEWAQLLMVAVRVASLPGLLSTTTVFGAREELPDEPEPGTVGLVLAEGTVFGESAIQPGYFADHQPPALLMLHPPSETTPSLPECTGAASGCVLLPGLPYLGLEHRAAWVEAEADGTITSMVSRVGVDPISHPDTAILAMLLAA | soluble
6 | SNAMRLVADSACDIKELRGMVFKAVPLTISTDNEEFCDDGQLDIHRMLDILEKHKGRSYTACPGIDAWLEAFGDDDEIFVVTITAGMSGTYNSAMAARAVYLEEHPQAKVRVIDSKSTGPQMRIILEQLQQMIEEGKKFEEIDGAIDAYMQKTRLFCSLKSLHNLAQNGRVSKVVASAAEVLGISVIGTASSHGTLEAIGKCRGDKKLLVKLQALLDDAGYEGGKLRICHVENEALADKIADMIKQAYGTTDVCVYKAGGLCSYYAERGGIILSCETK | soluble
7 | MSLTTSKTRKSGVAMTEKLELDPARTAIVLIEYQNEFTSDGGVLHGAVADVMQHTGMLANTVAVVDAARQAGVPIMHAPITFAEGYGELTRHPYGILKGVVDGKAFVKGTWGAAIVDELAPVNGDIVIEGKRGLDTFASTNLDFILRSKGVDTIVLGGFLTNCCVESTMRTGYERGFRVITLTDCVAATSQEEHNNAISYDFPMFSVPMTSADVIAALEGHHHHHH | soluble
8 | MKMGENVTEYFEFAGVKNTENTLKYAIERAKLGISDIVVASSYGETAKMLFDMLEKENLNVNVVVVTYHQGFSGPDVVAMPENVKKDLEKRGATVFSGTHALSGVERGISKRFGGYGPVEVIAQTLKTLGQGVKVCYEVTVMAADAGLVSTKKEIIAIGGSSRGADSAVVIRPSNMNTFFDIELRELICMPKNKKKHEMAGDPLEHHHHHH | soluble
9 | MGSDKIHHHHHHGSSESAEYQQTNHYNTPKGFMNDIQTIFKGSDGYYHMYYLLNSNYKLANDGTEWYHVRTKDWEHFENLGVAIPKFVNGWSAVATGSIFQNSNQFFKDLPTSAIVAYFTSYTDTGQHQYVAYSLDNGSSYQPYNNGKPVMISQTKEQNARDPYIWYDSNSKRLMMYLAEGDKIGIYASSDGKNWAYQGATVLNQYTLGGKDLGLVECPNLKTFYDSATNTTKHVLFFGANGYQYGSTTGTYYMIGHLDTQGNFVPEQNAERLDQGSDYYGANFYQESDCVVKSIAWMGNWDYLQGQILDDQGQESKHLGSVSSARDITMVKRDDKYVLESYLKNNNSRTNTVSYQSNADTAKLADDGYHKTLLSVSRWHSQELSLKFQANAATLNGHIRLIFKQADAQVSLDYNTDNGYYEVKRTSSKIIGSQKVNYERSYVVDSHWNGQKELNIYLVADKSSLEFALPNGQTYSMVKLSTASDMDIVIETSGSNRLQADLANLET | not soluble
10 | MSLKILICSDTHLGAGEKSHCLKDDCYLAFEEILQQANQEDVDLILHSGDFFDDQNPSKYCLTKTMELMRKYLMGKPKNSFDVAYTYEHNQEDNGFSMNQGIKYPMYVIHGNHDIPSGIEHVAGLDILQTAGLVNFIGKAEDISEIDNKTDQTILHLSPILLQKGTTRIALYGMSYKKNEEMNRLWASSQVQIDEPDGDVFKILLIHQDRILRNTLTTFPEELLKDRFNLIVFGHEHSSQVEEGTDVQIIQTGSSFPLSICEFEKAEKFIGLAHINGMKINMNKIALRNVREVFYEVVQMSQMIEGSANLEMVEHYIREEVQNFFDHVNTHSKTMLPLARIIIEYKSLGCIPNLRKMAFEFEKNIVNKGDCIKLKKKIQKREGHHHHHH | soluble
11 | MKLAAMIKKMCPSDSELSIPAKNCYRMVILGSSKVGKTAIVSRFLTGRFEDAYTPTIEDFHRKFYSIRGEVYQLDILDTSGNHPFPAMRRLSILTGDVFILVFSLDNRDSFEEVQRLRQQILDTKSCLKNKTKENVDVPLVICGNKGDRDFYREVDQREIEQLVGDDPQRCAYFEISAKKNSSLDQMFRALFAMAKLPSEMSPDLHRKVSVQYCDVLHKKALRNKKLLRAGSGGGGGDPGDAFGIVAPFARRPSVHSDLMYIREKASAGSQAKDKERCVIS | soluble
12 | MAHHHHHHMLSPTPLLQRYRLFHPCRENIPLHMNPAKSMFPLINSNNLLAKPRSNWQDFSGRKEFDEDHPLPVVASRLNERTTQHKWSHWDQYLNPQITQSVRDLTPTPEYVGMRSGHNMIKMGWMKIGGSWKYSRGYNDRRRVFARGQWQERKMTPRFMLAPRVSPGGPRNRYEGKLVFSRLKLSKLLWAIDTGRLNPNEVITVYHLHEAGVVAEGEIVWPGFVLISSGVSRVPYPIHIELQNASAESIRLIEEAGGSFTGVYMTHDGLYQELHPEEYPVFPEQEFPERKGLEGLATNPAKRGWLVRWYEDEGKYAHPEAGRRYSHYVRPPTERDFPATVGEYEMVKHHQKWHLNQPGTGTLLPWHSYNTADLLKRSAGRV | not soluble
13 | ADQPIDADVTVIGSGPGGYVAAIKAAQLGFKTVCIEKNETLGGTCLNVGCIPSKALLNNSHYYHMAHGTDFASRGIEMSEVRLNLDKMMEQKSTAVKALTGGIAHLFKQNKVVHVNGYGKITGKNQVTATKADGGTQVIDTKNILIATGSEVTPFPGITIDEDTIVSSTGALSLKKVPEKMVVIGAGVIGVELGSVWQRLGADVTAVEFLGHVGGVGIDMEISKNFQRILQKQGFKFKLNTKVTGATKKSDGKIDVSIEAASGGKAEVITCDVLLVCIGRRPFTKNLGLEELGIELDPRGRIPVNTRFQTKIPNIYAIGDVVAGPMLAHKAEDEGIICVEGMAGGAVHIDYNCVPSVIYTHPEVAWVGKSEEQLKEEGIEYKVGKFPFAANSRAKTNADTDGMVKILGQKSTDRVLGAHILGPGAGEMVNEAALALEYGASCEDIARVCHAHPTLSEAFREANLAASFGKSINF | soluble
14 | MSVLEGINSKALKTGNAGKNLKFKKIGDLPPPSPSPNTFRIYSMRFCPAAQRALIYASVKKIPSEVININLQQKPDWYFTKNYKGQVPTLEHAEGKKLVIESAVIPEYLDDIFPETKILPSDPYEKVQQKLLLERLSDQLTPAFGRVFRAIKNPEELKEKFESILKAFEEAESLLEGAFYSGTSSPGFVDYLIYPSFQRVYWLTFLLEIFPLPSDNFPGPGYPKLSQWFKAITAIPEVAAASQSTENGVGSCKEYMKGLPYFDYGL | not soluble
15 | MNNRSAVRILRLPAVIQKTGMARATIYDWLNPKSPRYDATFPKKRMLGVKSVGWIEAEIDEWLSQRCKLI | soluble
16 | DNYVGGIPLTSAHSGTVSGGVYCDSYYGMGDQEAKASNTIEKTFTVPDNANVEWAMLLTNVYCGHMQNNYQGKAKVDFNGKNLGTETLNVPYTYSYNGGNGHVQVNDHVNRVTSDYMMYYDVTGLVKAGKNTAVVKTDPLDSSFDGRIRLVTLVVAYNDGSKKTIWYQVNRGHDADSYYSDDEMNENYIGSTAFQAALPEGSSLTDSKLTLVYQASSDGAYAFNGNALSSGTPQGTFSGSNTWDVKDSLKSSGTNTLTYDRTASFYKSVLGILTAEYTTSSSGDSTDDTPADNTTDNGSAGDTTDDISSDNTTNDTSSDNTTSDVPAGNTTNDTPADNTTDAKFSADLGVQAIKVSHNSAAKAWKNLVNTVNVTVINNGPEKAGSFALELYSEGSLLESKPINGLANGATEAVEFVWKPEDAKNYTLRAVVVPGSTINDANATNNELSKTQEVMHNGYIGDKPLETYLHGTVKGNIIYDYGNSSYVKVSSGDVYTAGHSLSLPEGAIVKYARLYNFWTWSATGSSGVIPSMSLDFAGSSLTPEAEYADQKGWGQYDYPTGTWAYNVTGLVSGSGNYITTVKNTNSDAENSFCIDGIALLVVYEDASGKETQYWINEGCDAVSTMSSSGGLTPDEATVKIAFAGDSIDLGNVDNARLWTTVQSGGHEGIALKFNEMSISGVYDSTPSSNLDIDEARDVTSYLLSQNNEAQIIAPSVTDNSGDYMIPSSAILAVSYKSETTDDTNITDDTNVTDDTNVTDGTNVTDDTNVTDGTNVTNDTNVTNDTNVTNDTNVTNDTNVTNDTNVTNDTNVTDDTNVTDGTNVTDGTNVTIDTNVTIDTNVTIDTNVTDNTNVTDDTNMKDDTNVTLKVNIIPVISLTVSPDSLDFGTVSPGTPSESLPLALKNNGGISIKVTAEVHDQENGPFATGLLLDQNIWSNYSKVLAAESAETSQAQLDLPL | not soluble
17 | MAHHHHHHMGCSGSKNASNPKDGAASKGGKDGKTTADRKVAWERIRCAIPRDKDAESKSRRIELFKRFDTNGTGKLGFREVLDGCYSVLKLDEFTTHLPDIVQRAFDKAKDLGNKVKGVGEEDLVEFLEFRLMLCYIYDIFELTVMFDTMDKDGSLLIELQEFKEALPKLKEWGVDITDATTVFNEIDTNGSGVVTFDEFSCWAVTKKLQVCGDPDGEGNGANEGDGANAGDGVPAAEGSA | soluble
18 | GRISMTVKKLYFIPAGRCMLDHSSVNSALTPGKLLNLPVWCYLLETEEGPILVDTGMPESAVNNEGLFNGTFVEGQILPKMTEEDRIVNILKRVGYEPDDLLYIISSHLHFDHAGGNGAFTNTPIIVQRTEYEAALHREEYMKECILPHLNYKIIEGDYEVVPGVQLLYTPGHSPGHQSLFIETEQSGSVLLTIDASYTKENFEDEVPFAGFDPELALSSIKRLKEVVKKEKPIIFFGHDIEQEKSCRVFPEYI | soluble
